In the supplement of paper PMC10567573:

B1: WEE1 (parent)
chain: INPFTPDSLLLHSSGQCRRRKRTY

Variants of: B1
Test: protein stability index of a GFP-peptide fusion (GPS, HEK-293T) (PSI 1-6); higher = more stable
Details: c terminus: a fixed tail appended
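Also: lentivirally expressed fusions sorted by FACS into six bins by GFP to DsRed ratio, PSI derived from sequencing read proportions per bin multiplied by bin number.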

Variant	protein stability index
INPFTPDSLLLHSSGQLRRRKRTY	4
INPFTPDSLLLHSSGQTRRRKRTY	4.03
INPFTPDSLLLHSSGQMRRRKRTY	4.1
INPFTPDSLLLHSSGQSRRRKRTY	4
INPFTPDSLLLHSSGQERRRKRTY	4.09
INPFTPDSLLLHSSGQIRRRKRTY	4.01
INPFTPDSLLLHSSGQDRRRKRTY	4.42
INPFTPDSLLLHSSGQWRRRKRTY	3.35
INPFTPDSLLLHSSGQYRRRKRTY	3.04
INPFTPDSLLLHSSGQHRRRKRTY	3.44
INPFTPDSLLLHSSGQGRRRKRTY	3.69
INPFTPDSLLLHSSGQKRRRKRTY	4.12
INPFTPDSLLLHSSGQQRRRKRTY	4.4
INPFTPDSLLLHSSGQARRRKRTY	3.64
INPFTPDSLLLHSSGQPRRRKRTY	4.37
INPFTPDSLLLHSSGQNRRRKRTY	3.85
INPFTPDSLLLHSSGQFRRRKRTY	3.06
INPFTPDSLLLHSSGQVRRRKRTY	3.22
INPFTPDSLLLHSSGQRRRRKRTY	3.16
INPFTPDSLRLHSSGQCRRRKRTY	3.76
INPFTPDSLPLHSSGQCRRRKRTY	4.07
INPFTPDSLMLHSSGQCRRRKRTY	3.38
INPFTPDSLWLHSSGQCRRRKRTY	3.43
INPFTPDSLKLHSSGQCRRRKRTY	3.2

Variant	protein stability index
INPFTPDSLVLHSSGQCRRRKRTY	3.81
INPFTPDSLALHSSGQCRRRKRTY	3.96
INPFTPDSLGLHSSGQCRRRKRTY	3.83
INPFTPDSLYLHSSGQCRRRKRTY	2.89
INPFTPDSLILHSSGQCRRRKRTY	3.61
INPFTPDSLTLHSSGQCRRRKRTY	4.03
INPFTPDSLELHSSGQCRRRKRTY	3.41
INPFTPDSLNLHSSGQCRRRKRTY	3.85
INPFTPDSLSLHSSGQCRRRKRTY	3.88
INPFTPDSLFLHSSGQCRRRKRTY	3.42
INPFTPDSLQLHSSGQCRRRKRTY	3.5
INPFTPDSLHLHSSGQCRRRKRTY	4.01
INPFTPDSLDLHSSGQCRRRKRTY	3.9
INPFTPDSLCLHSSGQCRRRKRTY	3.68
INPFTPDSLLLHSSGICRRRKRTY	3.56
INPFTPDSLLLHSSGPCRRRKRTY	3.92
INPFTPDSLLLHSSGMCRRRKRTY	2.92
INPFTPDSLLLHSSGHCRRRKRTY	3.06
INPFTPDSLLLHSSGNCRRRKRTY	4.03
INPFTPDSLLLHSSGKCRRRKRTY	3.69
INPFTPDSLLLHSSGSCRRRKRTY	3.61
INPFTPDSLLLHSSGCCRRRKRTY	2.8
INPFTPDSLLLHSSGVCRRRKRTY	2.97
INPFTPDSLLLHSSGGCRRRKRTY	3.5

Variant	protein stability index
INPFTPDSLLLHSSGTCRRRKRTY	3.41
INPFTPDSLLLHSSGECRRRKRTY	3.69
INPFTPDSLLLHSSGACRRRKRTY	3.31
INPFTPDSLLLHSSGDCRRRKRTY	3.45
INPFTPDSLLLHSSGYCRRRKRTY	3.52
INPFTPDSLLLHSSGFCRRRKRTY	2.65
INPFTPDSLLLHSSGRCRRRKRTY	3.95
INPFTPDSLLLHSSGLCRRRKRTY	2.81
INPFTPDSLLLHSSGWCRRRKRTY	2.51
INPFTPDSQLLHSSGQCRRRKRTY	3.68
INPFTPDSSLLHSSGQCRRRKRTY	4.06
INPFTPDSYLLHSSGQCRRRKRTY	2.63
INPFTPDSELLHSSGQCRRRKRTY	3.96
INPFTPDSHLLHSSGQCRRRKRTY	4.06
INPFTPDSFLLHSSGQCRRRKRTY	2.94
INPFTPDSGLLHSSGQCRRRKRTY	4.28
INPFTPDSALLHSSGQCRRRKRTY	3.61
INPFTPDSCLLHSSGQCRRRKRTY	3.35
INPFTPDSWLLHSSGQCRRRKRTY	3.32
INPFTPDSTLLHSSGQCRRRKRTY	3.67
INPFTPDSMLLHSSGQCRRRKRTY	3.35
INPFTPDSKLLHSSGQCRRRKRTY	3.42
INPFTPDSRLLHSSGQCRRRKRTY	3.74
INPFTPDSPLLHSSGQCRRRKRTY	3.96

Variant	protein stability index
INPFTPDSVLLHSSGQCRRRKRTY	3.76
INPFTPDSNLLHSSGQCRRRKRTY	3.83
INPFTPDSILLHSSGQCRRRKRTY	3.25
INPFTPDSDLLHSSGQCRRRKRTY	4.2
INPFTPDSLLLWSSGQCRRRKRTY	2.19
INPFTPDSLLLPSSGQCRRRKRTY	3.4
INPFTPDSLLLASSGQCRRRKRTY	3.61
INPFTPDSLLLKSSGQCRRRKRTY	3.54
INPFTPDSLLLRSSGQCRRRKRTY	3.59
INPFTPDSLLLISSGQCRRRKRTY	3.6
INPFTPDSLLLNSSGQCRRRKRTY	3.19
INPFTPDSLLLMSSGQCRRRKRTY	3.32
INPFTPDSLLLCSSGQCRRRKRTY	2.57
INPFTPDSLLLYSSGQCRRRKRTY	2.89
INPFTPDSLLLESSGQCRRRKRTY	4.06
INPFTPDSLLLGSSGQCRRRKRTY	3.18
INPFTPDSLLLFSSGQCRRRKRTY	3.03
INPFTPDSLLLQSSGQCRRRKRTY	2.94
INPFTPDSLLLLSSGQCRRRKRTY	2.86
INPFTPDSLLLSSSGQCRRRKRTY	3.87
INPFTPDSLLLTSSGQCRRRKRTY	3.45
INPFTPDSLLRHSSGQCRRRKRTY	3.38
